From article PMC12259267, “Disruption of the KLHL37–N-Myc complex restores N-Myc degradation and arrests neuroblastoma growth in mouse models” (The Journal of Clinical Investigation, 2025) come the findings set out here.

What all share (settings): both partners purified
Test [1] concerns the target T1, recombinant KLHL37-His protein (UniProt O14682 1-589).
T1 construct: Kelch-like protein 37 (KLHL37), also known as ectodermal-neural cortex 1 (ENC1); also called rKLHL37-His; KLHL37-His (6x); source: E. coli BL21, purified (HisTrap HP)
T1 sequence (looked up): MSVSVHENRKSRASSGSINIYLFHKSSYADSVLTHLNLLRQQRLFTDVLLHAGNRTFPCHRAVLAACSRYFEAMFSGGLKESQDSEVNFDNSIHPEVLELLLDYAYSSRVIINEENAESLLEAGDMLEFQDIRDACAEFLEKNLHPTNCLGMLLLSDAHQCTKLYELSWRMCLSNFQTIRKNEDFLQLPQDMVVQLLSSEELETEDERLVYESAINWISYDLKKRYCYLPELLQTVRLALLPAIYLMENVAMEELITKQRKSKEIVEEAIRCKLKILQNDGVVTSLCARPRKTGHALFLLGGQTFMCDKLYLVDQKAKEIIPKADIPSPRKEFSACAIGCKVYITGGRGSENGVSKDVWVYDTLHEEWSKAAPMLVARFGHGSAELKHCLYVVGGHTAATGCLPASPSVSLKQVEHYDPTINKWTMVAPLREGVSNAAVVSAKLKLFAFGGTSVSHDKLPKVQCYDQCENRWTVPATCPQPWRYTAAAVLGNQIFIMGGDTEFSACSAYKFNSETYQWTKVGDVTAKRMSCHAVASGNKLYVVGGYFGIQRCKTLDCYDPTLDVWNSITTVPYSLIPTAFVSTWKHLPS
Nature of the test: pull-down; in vitro co-IP: recombinant KLHL37-His incubated with GST fusion protein at RT (25°C) for 3 hours, then GST resin (preblocked with 1% BSA); IP: GST, IB: KLHL37.

Test [2] deals with T2, KLHL37-His recombinant protein (UniProt O14682 1-589).
T2 construct: Kelch-like protein 37 (KLHL37, ENC1); the methods name only KLHL37-His; also called recombinant KLHL37; KLHL37-His (6×); source: E. coli BL21, purified (HisTrap HP)
T2 sequence (looked up): T1 sequence (looked up)
Description: pull-down; in vitro co-IP: recombinant KLHL37-His incubated with GST or GST–N-Myc at RT (25°C) for 3 hours, then GST resin preblocked with 1% BSA.

Test [3] has as its target T2, KLHL37-His recombinant protein. Description: MST; GFP–N-Myc or GFP–C-Myc at 200 nM in PBS-T (0.05% Tween 20); KLHL37-His serially diluted 16 times from 27.3 nM (N-Myc) or 7 μM (C-Myc); mixed 1:1; EC50 fitted.

B1: recombinant GST-N-Myc protein (natural protein, UniProt P04198 1-464, looked up)
chain: MPSCSTSTMPGMICKNPDLEFDSLQPCFYPDEDDFYFGGPDSTPPGEDIWKKFELLPTPPLSPSRGFAEHSSEPPSWVTEMLLENELWGSPAEEDAFGLGGLGGLTPNPVILQDCMWSGFSAREKLERAVSEKLQHGRGPPTAGSTAQSPGAGAASPAGRGHGGAAGAGRAGAALPAELAHPAAECVDPAVVFPFPVNKREPAPVPAAPASAPAAGPAVASGAGIAAPAGAPGVAPPRPGGRQTSGGDHKALSTSGEDTLSDSDDEDDEEEDEEEEIDVVTVEKRRSSSNTKAVTTFTITVRPKNAALGPGRAQSSELILKRCLPIHQQHNYAAPSPYVESEDAPPQKKIKSEASPRPLKSVIPPKAKSLSPRNSDSEDSERRRNHNILERQRRNDLRSSFLTLRDHVPELVKNEKAAKVVILKKATEYVHSLQAEEHQLLLEKEKLQARQQQLLKKIEHARTC
notes: N-Myc; also called rGST-N-Myc; source: SF9 insect cells (baculovirus), purified (GST TRAP HP); not shown: GST, N-terminal, kept
Turning to B1, the binding result in test [1] is “binds”.

B2: GST–N-Myc recombinant protein (natural protein, UniProt P04198 1-464, looked up)
chain: B1 chain
notes: N-Myc; source: SF9 insect cells (baculovirus), purified (GST TRAP HP); not shown: GST, N-terminal, kept
For B2, the binding result in test [2] is “binds”.

B3: recombinant GFP–N-Myc (natural protein, UniProt P04198 1-464, looked up)
chain: B1 chain
notes: N-Myc; also called rGFP–N-Myc; source: E. coli BL21
Take B3: the binding result in test [3] is on record as “binds”.
